This note sets out measurements from US20250144179A1, “PEPTIDE HORMONE TO PREVENT OR TREAT VASOSPASM, BRAIN INJURY OR CEREBRAL EDEMA” (UNIVERSITY OF FLORIDA RESEARCH FOUNDATION, INCORPORATED, priority 2022, published 2025).

Common to all, as to format: in vivo, mouse
One data set has as its system MMP9. In words: Western blot of MMP9 in brain after SAH. The settings on record: wild-type mice, adropin 450 nmol/kg i.p. vs vehicle. As for the experimental part: Synthetic adropin^34-76 peptide was supplied from Bachem (Bubendorf, Switzerland) and diluted in 0.1% BSA in saline. 0.1% BSA in saline was used as vehicle control for all experiments. Adropin (450 nmol/kg) or an equivalent volume of vehicle was delivered via intraperitoneal injection 15 minutes post-SAH. For experiments ending at 24 hours post-SAH, an identical dose of adropin/vehicle was given again 12 hours later. For experiments ending 7 days post-SAH, adropin/vehicle was given again on days 1, 3 & 5 post-SAH. In the aneurysm rupture model, adropin was given at a dose of 450 nmol/kg starting 3 days before aneurysm induction (elastase injection). Adropin was given every other day until sacrifice
SAH was modeled using the anterior circulation single autologous blood injection method^25,33 with minor adjustments. Mice were anesthetized with ketamine (100 mg/kg) and xylazine (10 mg/kg) before removing hair from scalp and cleaning with serial betadine—saline washes. The tail was also prepped from the base extending 1 cm distally. Mice were then fixed into a stereotaxic frame and body temperature maintained at 37° C. The scalp was incised along the sagittal suture from bregma to the nasal bone. […]
At 24 hours or 7 days post-SAH, mice were deeply anesthetized and perfused with 10 mL of ice-cold PBS. […] Samples were centrifuged, supernatant collected, and protein quantified via Bradford assay. […]

In a further data set the test system is eNOS^−/− mice, SAH model. In words: MCA diameter (vasospasm) after SAH in eNOS knockout mice. The settings on record: one week post-SAH. An excerpt:
All animal experiments were approved by IACUC (Institutional Animal Care and Use Committee) and performed in accordance with ARRIVE (Animal Research: Reporting of In Vivo Experiments) guidelines. All animals were 12-15-week-old females and were housed in pathogen-free housing with ad libitum food and water and 12-h light/dark cycling. Wild-type C57B1/6 mice were received from Charles River Labs (Wilmington, Mass.) and eNOS knockout mice were obtained from The Jackson Laboratory (Bar Harbor, Maine). eNOS knockout breeding pairs were genotyped prior to breeding and F1 progeny used for all experiments. The following primers were used for genotyping: eNOS knockout (Nos3^−/−): F-5′-[…]-3′, R-5′-[…]-3′. All animals underwent twice daily monitoring from institutional animal care services staff and/or investigators. […]
Middle cerebral artery diameter were measured as previously reported.^36,37 One week post-SAH, mice were deeply anesthetized with ketamine and xylazine before being serially perfused through the left ventricle with PBS (5 mL), 4% PFA (15 mL), and 20% India ink dissolved in 5% gelatin. […] Brains were imaged and analyzed by an observer blinded to group assignment. The narrowest diameter within the first 2000 μm of the middle cerebral artery (MCA) after the terminal interior carotid artery bifurcation (M1 segment) was measured to assess vasospasm. […]

The nature of data set [1]: Quantitative serum assays for common markers of liver toxicity.

Turning to “adropin (CHSRSADVDSLSESSPNSSPGPCPEKAPPPQKPSHEGSYLLQP) [Synthetic adropin^34-76 peptide from Bachem]”, the “cleaved MMP9 levels (immunoblot)” value in the data set on MMP9 is on record as “an effect abolished by adropin treatment”. For the same substance, the “vasospasm (MCA diameter)” value in the data set with eNOS^−/− mice, SAH model is “adropin did not prevent vasospasm”. In addition, in data set [1] (I.P. injection of adropin), the “serum concentration of alanine aminotransferase (ALT)” value was “did not cause elevations”, the “serum concentration of aspartate aminotransferase (AST)” value is reported as “did not cause elevations”, the “serum concentration of fasting glucose” value is “did not cause elevations” and the “serum concentration of total bilirubin” value is listed as “did not cause elevations”. Besides, the “common markers of liver toxicity” value in data set [1] (adropin vs vehicle) was “adropin had no effect compared to vehicle treatment”.
